Experimental data taken from the supplement of paper PMC7877785.
± gives the uncertainty stated by the source.

Assay: self-splicing fitness, log relative to wild type (ln ratio); higher = more splicing; Tetrahymena group I intron in knt gene, E. coli kanamycin selection, DiMSum; sequences stand for … in CUCUCU…GGAGGGAAAAGUUAUCAGGCAUGCACCUGGUAGCUAGUCUUUAAACCAAUAGAUUGCAUCGGUUUAAAAGGCAAGACCGUCAAAUUGCGGGAAAGGGGUCAACAGCCGUUCAGUACCAAGUCUCAGGGGAAACUUUGAGAUGGCCUUGCAAAGGGUAUGGUAAUAAGCUGACGGACAUGGUCCUAACCACGCAGCCAAGUCCUAAGUCAACAGAUCUUCUGUUGAUAUGGAUGCAGUUCACAGACUAAAUGUCGGUCGGGGAAGAUGUAUUCUUCUCAUAAGAUAUAGUCGGACCUCUCCUUAAUGGGAGCUAGCGGAUGAAGUGAUGCAACACUGGAGCCGCUGGGAACUAAUUUGUAUGCGAAAGUAUAUUGAUUAGUUUUGGAGUACUCGUGGUCG
Summary of the method: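 Fitness was computed with DiMSum as the error-weighted combination of replicate fold changes, kanamycin versus none, each normalised to wild type. The library randomised all eight intron nucleotides of the P1ex region, with the intron placed in the knt kanamycin-resistance gene on pET-22b(+) in E. coli BL21(DE3). Six replicate transformations were grown overnight at 37°C or 30°C on LB agar with or without 25 μg/mL kanamycin, plus 100 μg/mL carbenicillin, 50 μM IPTG and 0.2% rhamnose. Pooled colonies were amplicon-sequenced on an Illumina HiSeq 2500.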

Row | Sequence | self-splicing fitness (ln) (30 °C) | self-splicing fitness (ln) (37 °C)
1 | AAGUAGCAAUAUUACGGCCC | -0.413 ± 0.17 | -1.15 ± 0.26
2 | CUUAAGCAAUAUUACGGCGC | -3.46 ± 0.37 | -2.7 ± 0.28
3 | ACCGAGCAAUAUUACGUGUA | -2.2 ± 0.13 | -1.49 ± 0.096
4 | GUACAGCAAUAUUACGCAUA | -2.65 ± 0.15 | -1.56 ± 0.11
5 | AGCCAGCAAUAUUACGCACU | -0.425 ± 0.094 | -0.259 ± 0.12
6 | UGUCAGCAAUAUUACGCGAU | -3.41 ± 0.4 | -2.2 ± 0.34
7 | CACCAGCAAUAUUACGGAUG | -3.11 ± 0.12 | -1.84 ± 0.12
8 | CAGAAGCAAUAUUACGACUU | -0.506 ± 0.078 | 0.0901 ± 0.079
9 | GUCUAGCAAUAUUACGAUAC | 0.218 ± 0.22 | -0.815 ± 0.22
10 | ACACAGCAAUAUUACGGGUG | -1.31 ± 0.053 | -0.999 ± 0.065
11 | CCGAAGCAAUAUUACGUUUA | -3.96 ± 0.26 | -2.95 ± 0.19
12 | AGGCAGCAAUAUUACGUCCG | -1.16 ± 0.12 | -0.519 ± 0.13
13 | ACAUAGCAAUAUUACGAGCU | -1.32 ± 0.12 | -0.388 ± 0.13
14 | UAUGAGCAAUAUUACGGGAG | -1.86 ± 0.19 | -2.95 ± 0.24
15 | AAUCAGCAAUAUUACGUUAU | -0.401 ± 0.041 | 0.272 ± 0.062
16 | CCGUAGCAAUAUUACGUCAA |  | -1.2 ± 0.27
17 | CCCCAGCAAUAUUACGAAAC | -3.12 ± 0.2 | -1.89 ± 0.27
18 | GUCCAGCAAUAUUACGUAAA | -0.484 ± 0.081 | 0.338 ± 0.12
19 | GGCUAGCAAUAUUACGGAAG | -1.13 ± 0.11 | -0.386 ± 0.14
20 | UGCAAGCAAUAUUACGUUUA | -1.49 ± 0.076 | -0.234 ± 0.072
21 | UGGGAGCAAUAUUACGGACA | -1.7 ± 0.14 | -0.535 ± 0.13
22 | GUGAAGCAAUAUUACGACGA | 0.184 ± 0.15 | 0.158 ± 0.22
23 | AGAAAGCAAUAUUACGCUGU | -2.34 ± 0.14 | -1.98 ± 0.16
24 | UUACAGCAAUAUUACGACCG | -0.642 ± 0.091 | -0.0873 ± 0.13
25 | GUGCAGCAAUAUUACGCUCG | -0.5 ± 0.091 | -0.883 ± 0.13

Row | Sequence | self-splicing fitness (ln) (30 °C) | self-splicing fitness (ln) (37 °C)
26 | GGUUAGCAAUAUUACGUCCU | -1.2 ± 0.12 | -0.367 ± 0.12
27 | GUAUAGCAAUAUUACGGAUC | -0.654 ± 0.14 | -0.016 ± 0.17
28 | UUCCAGCAAUAUUACGACAC | -3.32 ± 0.19 | -2.18 ± 0.19
29 | GCUCAGCAAUAUUACGUGAC | -1.88 ± 0.092 | -1.03 ± 0.11
30 | GGACAGCAAUAUUACGUGUC | -3.52 ± 0.28 | -2.68 ± 0.23
31 | GCGUAGCAAUAUUACGAUUG | -2.26 ± 0.18 | -1.98 ± 0.21
32 | AAUCAGCAAUAUUACGGACU | -0.329 ± 0.1 | -0.697 ± 0.099
33 | AAGAAGCAAUAUUACGCCUA | -0.339 ± 0.12 | -0.209 ± 0.13
34 | GUCAAGCAAUAUUACGAAGA | -3.88 ± 0.28 | 
35 | CUGCAGCAAUAUUACGCAAA | -2.18 ± 0.2 | -3.55 ± 0.24
36 | AUGUAGCAAUAUUACGAGUA | -2.73 ± 0.17 | -1.72 ± 0.13
37 | UCAGAGCAAUAUUACGGACG | -3.67 ± 0.44 | -1.58 ± 0.2
38 | AGGUAGCAAUAUUACGAUCA | -0.205 ± 0.014 | -0.121 ± 0.033
39 | CUGCAGCAAUAUUACGCCGU |  | -1.3 ± 0.31
40 | CACUAGCAAUAUUACGGGAG | -1.54 ± 0.073 | -0.152 ± 0.076
41 | CGGCAGCAAUAUUACGAGCA | -2.99 ± 0.24 | -0.81 ± 0.13
42 | CUUGAGCAAUAUUACGAGCC | -1.39 ± 0.33 | 
43 | UGUAAGCAAUAUUACGCUCG | -1.1 ± 0.11 | -0.752 ± 0.13
44 | GGACAGCAAUAUUACGCUAU | -1.42 ± 0.098 | -0.49 ± 0.11
45 | GAAGAGCAAUAUUACGCAGA | -2.65 ± 0.32 | -2.73 ± 0.41
46 | CUAGAGCAAUAUUACGGUUG | -0.207 ± 0.056 | -0.329 ± 0.074
47 | UAAAAGCAAUAUUACGGAAA | -2.5 ± 0.23 | -1.72 ± 0.15
48 | AUAGAGCAAUAUUACGUAGG | -2.32 ± 0.18 | -2.65 ± 0.38
49 | UCAUAGCAAUAUUACGGGAU | -3.11 ± 0.18 | -2.87 ± 0.28
50 | UAAGAGCAAUAUUACGUUUG | -2.33 ± 0.096 | -1.07 ± 0.12

Row | Sequence | self-splicing fitness (ln) (30 °C) | self-splicing fitness (ln) (37 °C)
51 | GUAAAGCAAUAUUACGUCCA | -0.574 ± 0.088 | 0.0855 ± 0.12
52 | UGCAAGCAAUAUUACGCUUU | -3.45 ± 0.21 | -1.85 ± 0.2
53 | GCUAAGCAAUAUUACGUUGA | -1.97 ± 0.14 | -0.945 ± 0.14
54 | UGACAGCAAUAUUACGUGGU | -3.23 ± 0.15 | -2.22 ± 0.12
55 | CUCAAGCAAUAUUACGCACG | -2.51 ± 0.14 | -0.724 ± 0.16
56 | AGAAAGCAAUAUUACGAGGA | -3.15 ± 0.15 | -2.71 ± 0.16
57 | GCUCAGCAAUAUUACGAACU | -0.913 ± 0.068 | -0.48 ± 0.079
58 | CCGAAGCAAUAUUACGUAGA | -3.45 ± 0.17 | -1.06 ± 0.17
59 | ACGAAGCAAUAUUACGCUAC | -2.09 ± 0.14 | -2.81 ± 0.15
60 | CUACAGCAAUAUUACGGCUA | -3.25 ± 0.25 | -3.02 ± 0.22
61 | GCUUAGCAAUAUUACGACGG | -1.89 ± 0.17 | -0.935 ± 0.18
62 | GGUUAGCAAUAUUACGAGCU | -2.61 ± 0.29 | -1.69 ± 0.32
63 | GUCGAGCAAUAUUACGGCGG |  | -2.67 ± 0.41
64 | UUGCAGCAAUAUUACGCGAU | -2.02 ± 0.29 | -2.6 ± 0.36
65 | GCUAAGCAAUAUUACGCGUU | -1.23 ± 0.083 | -0.649 ± 0.1
66 | CCCUAGCAAUAUUACGACCG | -1.21 ± 0.2 | -2.17 ± 0.34
67 | UUAGAGCAAUAUUACGCCGA | -0.286 ± 0.14 | 0.255 ± 0.18
68 | GGAUAGCAAUAUUACGUCGC | -1.97 ± 0.17 | -1.42 ± 0.21
69 | AAUAAGCAAUAUUACGAUUU | -0.134 ± 0.064 | -0.252 ± 0.074
70 | AACUAGCAAUAUUACGUUCA | -1.3 ± 0.1 | -0.728 ± 0.12
71 | CUCCAGCAAUAUUACGGUUA | -3.03 ± 0.18 | -2.45 ± 0.16
72 | AGUAAGCAAUAUUACGCGGA | -3.49 ± 0.32 | -0.326 ± 0.11
73 | CGUUAGCAAUAUUACGCAAC | -2.61 ± 0.49 | -2.01 ± 0.35
74 | AUAAAGCAAUAUUACGACUC | -0.219 ± 0.075 | 0.324 ± 0.088
75 | GAAGAGCAAUAUUACGGCAG | -4.54 ± 0.36 | -1.97 ± 0.23

Row | Sequence | self-splicing fitness (ln) (30 °C) | self-splicing fitness (ln) (37 °C)
76 | UCGCAGCAAUAUUACGUGAC | -5.1 ± 0.38 | -2.41 ± 0.26
77 | CGUCAGCAAUAUUACGACGU | -3.23 ± 0.17 | -1.93 ± 0.14
78 | UUAUAGCAAUAUUACGUUAA | -2.07 ± 0.29 | -1.61 ± 0.22
79 | CCCAAGCAAUAUUACGCACU | -3.57 ± 0.19 | -2.72 ± 0.25
80 | ACGCAGCAAUAUUACGAAAG | -3.33 ± 0.21 | -2 ± 0.19
81 | AAGAAGCAAUAUUACGCAGA | -2.35 ± 0.17 | -1.5 ± 0.11
82 | ACCGAGCAAUAUUACGGGUC | -4.23 ± 0.14 | -3.06 ± 0.14
83 | CCUCAGCAAUAUUACGUCUU | -3.91 ± 0.27 | -2.55 ± 0.26
84 | CCCAAGCAAUAUUACGUGGG | -3.29 ± 0.11 | -2.82 ± 0.17
85 | AUUCAGCAAUAUUACGAGGC | -3.49 ± 0.19 | -1.51 ± 0.19
86 | GAGUAGCAAUAUUACGAAAG |  | -1.2 ± 0.3
87 | UGCAAGCAAUAUUACGGCAA | 0.111 ± 0.12 | -0.447 ± 0.12
88 | GGAGAGCAAUAUUACGUUCG | -1.27 ± 0.19 | -0.35 ± 0.23
89 | UUCCAGCAAUAUUACGCACA | -0.0937 ± 0.12 | -0.0969 ± 0.13
90 | GAUGAGCAAUAUUACGUGCC | -2.92 ± 0.23 | -2.3 ± 0.42
91 | AAGCAGCAAUAUUACGGCUC | -1.67 ± 0.093 | -0.463 ± 0.14
92 | UCUAAGCAAUAUUACGCCUA |  | -1.36 ± 0.26
93 | UCUAAGCAAUAUUACGCUAU | -3.62 ± 0.31 | -3.37 ± 0.28
94 | AUAUAGCAAUAUUACGCGAG | -2.35 ± 0.13 | -1.09 ± 0.13
95 | UCCAAGCAAUAUUACGCGUG | -4.16 ± 0.21 | -2.53 ± 0.2
96 | GGCCAGCAAUAUUACGUGAG | -2.13 ± 0.08 | -1.49 ± 0.092
97 | CAACAGCAAUAUUACGCAUC | -3.3 ± 0.16 | -2.29 ± 0.14
